Non-standard residues stand in square brackets, D forms with d. No end group written: not given here. Nle = CCCC[C@H](N)C(=O)O
Molecular target: T1, sortilin (Homo sapiens, UniProt Q99523)
T1 construct: endogenous in cells
T1 sequence (Q99523 78-831): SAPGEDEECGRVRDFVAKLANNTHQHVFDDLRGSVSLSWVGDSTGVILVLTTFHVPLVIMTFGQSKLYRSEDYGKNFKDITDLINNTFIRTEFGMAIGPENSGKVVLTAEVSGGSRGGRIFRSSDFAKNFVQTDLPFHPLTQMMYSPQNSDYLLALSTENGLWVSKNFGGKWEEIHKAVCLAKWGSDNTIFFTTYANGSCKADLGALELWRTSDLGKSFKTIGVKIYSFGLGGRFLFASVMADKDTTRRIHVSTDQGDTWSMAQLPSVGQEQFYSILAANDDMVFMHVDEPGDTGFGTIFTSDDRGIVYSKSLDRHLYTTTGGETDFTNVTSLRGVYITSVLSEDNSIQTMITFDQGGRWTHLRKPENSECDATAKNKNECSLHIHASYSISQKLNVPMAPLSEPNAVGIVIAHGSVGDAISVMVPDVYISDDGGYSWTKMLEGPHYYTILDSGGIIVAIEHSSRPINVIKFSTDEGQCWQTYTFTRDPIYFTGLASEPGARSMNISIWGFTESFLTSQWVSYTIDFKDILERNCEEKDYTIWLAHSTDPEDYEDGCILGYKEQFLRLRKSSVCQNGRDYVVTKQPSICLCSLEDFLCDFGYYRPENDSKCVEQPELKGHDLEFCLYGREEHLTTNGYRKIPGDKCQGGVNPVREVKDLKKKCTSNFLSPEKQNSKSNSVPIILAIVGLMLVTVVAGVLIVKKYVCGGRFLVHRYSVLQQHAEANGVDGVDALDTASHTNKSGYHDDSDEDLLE
Test: uptake of the peptide upon sortilin siRNA
Type: cell-based
Details: FIG. 6
Protocol: In vitro testing of the TH19P01 peptide and the TH1902 conjugate compound was conducted.

Acetyl-GVRAKAGVRN(Nle)FKSESY (Ac-GVRAKAGVRN[Nle]FKSESY) [TH19P01]
uptake of the peptide: inhibited upon sortilin siRNA

From patent publication US20230036041A1, “SORTILIN BINDING CONJUGATE COMPOUNDS, COMPOSITIONS AND USES THEREOF FOR TREATING CANCER” (THERATECHNOLOGIES INC., priority 2019, published 2023)
